The labels stand for the following.
B2: GST–CNOT1_(1088–1312) (domain or fragment)
chain: ENIQEKIAFIFNNLSQSNMTQKVEELKETVKEEFMPWVSQYLVMKRVSIEPNFHSLYSNFLDTLKNPEFNKMVLNETYRNIKVLLTSDKAAANFSDRSLLKNLGHWLGMITLAKNKPILHTDLDVKSLLLEAYVKGQQELLYVVPFVAKVLESSIRSVVFRPPNPWTMAIMNVLAELHQEHDLKLNLKFEIEVLCKNLALDINELKPGNLLKDKDRLKNLDEQLS
B3: maltose-binding protein (MBP)-tagged full-length human DDX6 (natural protein)
chain: MSTARTENPVIMGLSSQNGQLRGPVKPTGGPGGGGTQTQQQMNQLKNTNTINNGTQQQAQSMTTTIKPGDDWKKTLKLPPKDLRIKTSDVTSTKGNEFEDYCLKRELLMGIFEMGWEKPSPIQEESIPIALSGRDILARAKNGTGKSGAYLIPLLERLDLKKDNIQAMVIVPTRELALQVSQICIQVSKHMGGAKVMATTGGTNLRDDIMRLDDTVHVVIATPGRILDLIKKGVAKVDHVQMIVLDEADKLLSQDFVQIMEDIILTLPKNRQILLYSATFPLSVQKFMNSHLQKPYEINLMEELTLKGVTQYYAYVTERQKVHCLNTLFSRLQINQSIIFCNSSQRVELLAKKISQLGYSCFYIHAKMRQEHRNRVFHDFRNGLCRNLVCTDLFTRGIDIQAVNVVINFDFPKLAETYLHRIGRSGRFGHLGLAINLITYDDRFNLKSIEEQLGTEIKPIPSNIDKSLYVAEYHSEPVEDEKP

Assay in all cases: pull-down
For the assay “GST–CNOT1_(1088–1312)”, the target named is B2.
Assay [1] has as its target T1, MBP–DDX6 N-term (residues 1–302) (human, UniProt P26196 1-302).
T1 sequence: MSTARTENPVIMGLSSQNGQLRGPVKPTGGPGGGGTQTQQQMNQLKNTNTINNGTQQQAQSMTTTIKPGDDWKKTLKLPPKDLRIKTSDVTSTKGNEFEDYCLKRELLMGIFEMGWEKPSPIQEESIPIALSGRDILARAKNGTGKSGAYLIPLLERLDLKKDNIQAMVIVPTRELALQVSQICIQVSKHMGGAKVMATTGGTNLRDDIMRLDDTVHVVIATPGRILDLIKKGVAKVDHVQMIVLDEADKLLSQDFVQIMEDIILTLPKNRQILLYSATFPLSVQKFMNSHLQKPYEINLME

Assay [2] deals with B3.
The next assay concerns the target GST–CNOT1_(1075–1575) (human, UniProt A5YKK6-2 1075-1575).

Chain of GST–CNOT1_(1075–1575) (A5YKK6 1080-1580): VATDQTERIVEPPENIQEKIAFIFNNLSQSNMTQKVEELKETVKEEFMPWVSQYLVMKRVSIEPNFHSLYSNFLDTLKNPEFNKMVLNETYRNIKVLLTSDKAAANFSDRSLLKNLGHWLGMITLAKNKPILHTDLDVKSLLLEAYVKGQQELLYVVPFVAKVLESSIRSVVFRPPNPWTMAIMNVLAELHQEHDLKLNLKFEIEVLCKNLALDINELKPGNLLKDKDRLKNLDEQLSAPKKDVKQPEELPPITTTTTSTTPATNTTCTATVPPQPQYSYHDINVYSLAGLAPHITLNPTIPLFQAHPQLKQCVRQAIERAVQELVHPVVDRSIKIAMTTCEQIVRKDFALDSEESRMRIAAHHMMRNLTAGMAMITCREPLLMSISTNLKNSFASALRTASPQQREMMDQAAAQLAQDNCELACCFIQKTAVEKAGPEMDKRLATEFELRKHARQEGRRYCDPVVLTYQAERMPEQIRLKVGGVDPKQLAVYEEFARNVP

B1: MBP–DDX6 C-term (residues 303–483) (domain or fragment)
chain: ELTLKGVTQYYAYVTERQKVHCLNTLFSRLQINQSIIFCNSSQRVELLAKKISQLGYSCFYIHAKMRQEHRNRVFHDFRNGLCRNLVCTDLFTRGIDIQAVNVVINFDFPKLAETYLHRIGRSGRFGHLGLAINLITYDDRFNLKSIEEQLGTEIKPIPSNIDKSLYVAEYHSEPVEDEKP
With B1, the binding result with GST–CNOT1_(1088–1312) is “binds”.
Regarding B2, the binding result in assay [1] and in assay [2] was “binds” throughout.
Regarding B3, the binding result with GST–CNOT1_(1075–1575) is given as “binds”.

The values are drawn from PMC4138323 (RNA, 2014).
